# In US20220162619:
# Test system: T1, synthetic model peptide substrate PLVQ conjugated with 7-amino-4-methylcoumarin (AMC)
# T1 sequence: PLVQ
substance,measurement,value
"recombinant truncated triticain-alpha with a C-terminal polyhistidine sequence, expressed in soluble form in E. coli","enzymatic (proteolytic) activity: hydrolysis of PLVQ-AMC, fluorescence of free AMC","significantly exceeded the activity of the truncated triticain-alpha preparation 6HIS-Triticain-α-GM, obtained in an insoluble form, as well as that of papain"
"recombinant truncated triticain-alpha with an N-terminal polyhistidine sequence, expressed in soluble form in E. coli","enzymatic (proteolytic) activity: hydrolysis of PLVQ-AMC, fluorescence of free AMC","significantly exceeded the activity of the truncated triticain-alpha preparation 6HIS-Triticain-α-GM, obtained in an insoluble form, as well as that of papain"
